Measured values published in article doi:10.1101/2025.11.11.687775.

Biological target: microtubules of primary rat hippocampal neurons (rat (endogenous in primary hippocampal neurons)) (UniProt P68370)

Q: “GFP-tagged Tau lacking the microtubule-binding domain (delMTBD-Tau; PRR2-WT, MTBD deleted) (from UniProt P10636-6 1-383) (natural protein)” was tested. Which FRAP recovery plateau in rat neurons did it give?
A: 0.873
